Source: US20250313611A1

Columns and labels:
[1] = target: spike protein of authentic SARS-COV-2 Omicron BA.5 virus (SARS-CoV-2 Omicron BA.5); assay: cell-based or functional assay
[2] = target: spike protein of authentic SARS-COV-2 614G virus (SARS-CoV-2 614G) (UniProt P0DTC2); assay: cell-based or functional assay
[3] = target: spike protein of authentic SARS-COV-2 Omicron BA.2 virus (SARS-CoV-2 Omicron BA.2); assay: cell-based or functional assay
[4] = target: spike protein of authentic SARS-COV-2 Delta virus (SARS-CoV-2 Delta); assay: cell-based or functional assay
[5] = target: spike protein of authentic SARS-COV-2 Omicron BA.1 virus (SARS-CoV-2 Omicron BA.1); assay: cell-based or functional assay
[6] = target: SARS-COV-2 spike [change] trimer ([change]-foldon-His-Strep) (SARS-CoV-2 (Wuhan)) (UniProt P0DTC2)

Substance | GM IC50 in ng/mL (GSD factor), live virus microneutralisation [1] [ng/mL] | GM IC50 in ng/mL (GSD factor), live virus microneutralisation [2] [ng/mL] | GM IC50 in ng/mL (GSD factor), live virus microneutralisation [3] [ng/mL] | GM IC50 in ng/mL (GSD factor), live virus microneutralisation [4] [ng/mL] | GM IC50 in ng/mL (GSD factor), live virus microneutralisation [5] [ng/mL] | IC50 (read off the curve) [6] [mg/L]
Bebtelovimab Biosimilar (PX-TA1750) (antibody) | 2.4 | 3.8 | 1.7 | 1.6 | 2.5 | –
CB6 monoclonal antibody | – | – | – | – | – | 0.05
cilgavimab Biosimilar (PX-TA1033) (antibody) | – | 30.9 | 21.2 | 28.8 | 156 | –
sotrovimab Biosimilar (PX-TA1637) (antibody) | > 10000 | 205 | 7150 | 141 | 1100 | –
